# Article PMC12421950, “Structural insights into manganese-dependent arylsulfatase from Enterococcus faecium and its catalytic promiscuity” (mBio, 2025)
# T1: EfAS (Enterococcus faecium, UniProt I3U6E8)
# T1 construct: gene HMPREF0351_12962; synthetic codon-optimised gene in pSMT3, E. coli BL21(DE3); His6-SUMO tag removed by Ulp1; homotetramer, 323 kDa by SEC; residues 9-488 modelled; C61 partly oxidised to formylglycine
# T1 sequence (I3U6E8 1-491 limits assumed): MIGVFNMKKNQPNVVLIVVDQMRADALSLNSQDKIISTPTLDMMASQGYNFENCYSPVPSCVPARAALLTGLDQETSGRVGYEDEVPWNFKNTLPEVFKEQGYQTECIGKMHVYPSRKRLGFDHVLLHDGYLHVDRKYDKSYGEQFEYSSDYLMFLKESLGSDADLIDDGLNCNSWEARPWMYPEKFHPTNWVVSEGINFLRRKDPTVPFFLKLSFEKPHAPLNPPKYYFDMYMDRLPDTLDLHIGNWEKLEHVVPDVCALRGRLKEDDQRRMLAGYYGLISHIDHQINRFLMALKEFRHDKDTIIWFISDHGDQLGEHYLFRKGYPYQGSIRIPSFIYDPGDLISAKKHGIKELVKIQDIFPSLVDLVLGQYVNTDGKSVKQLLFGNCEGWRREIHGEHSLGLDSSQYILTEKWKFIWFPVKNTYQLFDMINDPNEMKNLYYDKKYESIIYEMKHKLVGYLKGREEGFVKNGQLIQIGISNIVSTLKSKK
# B1: EfAS (Enterococcus faecium DO) (protein)
# chain: T1 sequence (I3U6E8 1-491 limits assumed)
# notes: synthetic codon-optimised gene in pSMT3, E. coli BL21(DE3); His6-SUMO tag removed by Ulp1; homotetramer, 323 kDa by SEC; residues 9-488 modelled; C61 partly oxidised to formylglycine
# Columns and labels:
# [1] = target: arylsulfatase from Enterococcus faecium (EfAS), wild type (Enterococcus faecium); test: crystal structure; vapor diffusion at 17°C, 0.1 M sodium cacodylate pH 6.4, 8% PEG3350, 0.2 M MnCl2; space group P42(1)2, two molecules in the asymmetric unit, tetramer through symmetry-related operations
# EfAS = target: T1, EfAS; test: p-nitrophenol colorimetric assay at […] nm, Lineweaver-Burk; assay type: biochemical; conditions: read-out: Kinetic parameters / Km (×10^-3 M); 50 mM sodium acetate pH 4.5, 1 mM MnCl2, 37 °C
# purified protein [2] = substrate: O=[N+]([O-])c1ccc(OP(=O)(O)O)cc1; test: purified protein; assay type: biochemical, Enterococcus faecium; conditions: 50 mM sodium acetate pH 4.5, 1 mM MnCl2, 37 °C
# purified protein [3] = substrate: O=[N+]([O-])c1ccc(OS(=O)(=O)O)cc1; test: purified protein; assay type: biochemical, Enterococcus faecium; conditions: 50 mM sodium acetate pH 4.5, 1 mM MnCl2, 37 °C
molecule,measurement,setting,value
"arylsulfatase from Enterococcus faecium (EfAS), wild type (enzyme)",stoichiometry N,[1],4
O=[N+]([O-])c1ccc(OP(=O)(O)c2ccccc2)cc1 [p-nitrophenyl phenylphosphonate],Km,EfAS,1410 µM
B1,Km,purified protein [2],1285 µM
same,kcat,purified protein [2],0.0318 s⁻¹
same,kcat/Km,purified protein [2],24.8 M⁻¹ s⁻¹
same,Km,purified protein [3],677 µM
same,kcat,purified protein [3],0.0831 s⁻¹
same,kcat/Km,purified protein [3],123 M⁻¹ s⁻¹
